Measurements from patent EP4218932A2.

B1: 1245_P02_F07 scFv (scFv)
scFv: QVQLQQSGPGLVKPSQTLSLTCVISGDSVSSNSAAWNWIRQSPSRGLEWLGRTYYRSKWYNDYAVSVKSRITINPDTSKNQFSLQLNSVTPEDTAVYYCARDYYYSMDVWGQGTMVTVSSGGGGSGGGGSGGGASDIQMTQSPSTLSASVGDRVTITCRASQSISSWLAWYQQKPGKAPKLLIYDASSLESGVPLRFSGSGSGTEFTLTISSLQPDDFATYYCQQSHSHPPTFGPGTKVDIK
B2: 1251_P02_C05 scFv (scFv)
scFv: EVQLLESGGGLVQPGGSLRLSCAASGFTFSSYAMSWVRQAPGKGLEWVSAISGGGGTTYSSDSVKGRFTISRDNSKNTLYLQMNSLRAEDTAVYYCARDSGVAFDIWGQGTLVTVSSGGGGSGGGGSGGGASDIQMTQSPSFLSASVGDRVTITCRASQNIRTWLAWYQQKPGRAPKLLIYDASSLESGVPSRFSGSGSGTDFTLTISSLQPEDFATYYCQQFKRYPPTFGLGTKVEIK
B3: 1245_P01_E07 scFv (scFv)
scFv: QVQLVESGGGLVKPGGSLRLSCAASGFTFSDYYMSWIRQAPGKGLEWVSYISSSGSTIYYADSVKGRFTISRDNAKNSLYLQMNSLRAEDTAVYYCARVDYADAFDIWGQGTLVTVSSGGGGSGGGGSGGGASDIQMTQSPSSLSASVGDRVTIACRAGQSIGTYLNWYQQKPGKAPKLLIYVASSLQSGVPSRFSGSGSGTEFTLTISSLQPEDFATYYCQQSYSTLLTFGRGTKVEIK
B4: 1245_P02_G04 scFv (scFv)
scFv: QVQLQQSGPGLVKPSQTLSLTCAISGDSVSSKSAAWNWIRQSPSRGLEWLGRTYYRSKWSTDYAASVKSRITINPDTSKNQLSLQLNSVTPEDTAVYYCARTWSGYVDVWGQGTLVTVSSGGGGSGGGGSGGGASDIQMTQSPPALSASVGDRVTITCRASQDINDWLAWYQHKPGKAPKLLIYDASSLESGVPSRFSGSGSGTEFTLTISSLQPDDFATYYCQQSYSTPQVTFGQGTRLEIK
B5: 1141_P01_E01 scFv (scFv)
scFv: QVQLVQSGAEVKKPGESLKISCKGSGYSFTSYWIGWVRQMPGKGLEWMGIIYPGDSDTRYSPSFQGQVTISADKSISTAYLQWSSLKASDTAMYYCARHQVDTRTADYWGQGTLVTVSSGGGGSGGGGSGGGASQSALTQPASVSGSPGQSVTISCTGTRSDVGGYNYVSWYQHHPGKAPKLMIYEVSNRPSGVSNRFSGSKSGNTASLTISGLQAEDEADYYCSSYTSTSTLVFGGGTKLTVL
B6: 1245_P01_G09 scFv (scFv)
scFv: QVQLQQSGPGLVKPSQTLSLTCAISGDSVSSNSAAWNWIRQSPSRGLEWLGRTYYGSKWYNEYALSVKSRIIINPDTSKNQFSLQLNSVTPEDTAVYYCARDYYYSMDVWGQGTLVTVSSGGGGSGGGGSGGGASDIVMTQSPSTLSASIGDRVTITCRAGQSISTWLAWYQQKPGKAPKLLIYDASSLESGVPLRFSGSGSGTEFTLAISSLQPDDFATYYCQQSYSTPVTFGQGTKVEIK
B7: 1251_P02_G10 scFv (scFv)
scFv: EVQLVESGGGLVQPGGSLRLSCAASGFTFSDYYMSWIRQAPGKGLEWVSYISSSGSTIYYADSVKGRFTISRDNAKNSLYLQMNSLRAEDTAVYYCARHSWNDAFDIWGRGTLVTVSSGGGGSGGGGSGGGASDIQMTQSPSSLSASVGDRVTITCRASQSISSHLNWYQQKPGKAPKLLIYAASSLQSGVPSRFSASGSGTDFTLTISSLQPEDFATYYCQQSYSTLLTFGGGTKVEIK
B8: 1139_P01_E04 scFv (scFv)
scFv: QVQLQQSGPGLVKPSQTLSLTCAISGDSVSSNSAAWNWIRQSPSRGLEWLGRTYYRSKWYNDYAVSVRSRITINPDTSKNQFSLQLNSVTPEDTAVYYCARSWNDAFDIWGQGTTVTVSSGGGGSGGGGSGGGASDIVMTQSPSTLSASIGDRVTITCRAGQSISTWLAWYQQKPGKAPKLLIYDASSLESGVPLRFSGSGSGTDFTLTISSLQPEDFATYYCQQSYSTPLTFGGGTKVEIK
B9: 1252_P01_C08 scFv (scFv)
scFv: EVQLLESGGGLVQPGRSLRLSCAASGFTVSSNYMSWVRQAPGKGLEWVSVIYSGGSTYYADSVKGRFTISRDNSKNTLYLQMNSLRAEDTAVYYCASPIELGAFDIWGQGTLVTVSSGGGGSGGGGSGGGASSYELTQPPSVSVAPGKTARITCGGNNIGSQSVHWYQQKPGQAPMLVIYYDSDRPSGIPERFSGSNSGNTATLTISRVEAGDEADYYCQVWDSSSDHVVFGGGTKLTVL

biological target: L1 (DV1-GV4) (human); assay: DELFIA affinity ranking, signal with 100 nM biotinylated L1
Sequence (chain, as listed by the source, chain 1 of 2): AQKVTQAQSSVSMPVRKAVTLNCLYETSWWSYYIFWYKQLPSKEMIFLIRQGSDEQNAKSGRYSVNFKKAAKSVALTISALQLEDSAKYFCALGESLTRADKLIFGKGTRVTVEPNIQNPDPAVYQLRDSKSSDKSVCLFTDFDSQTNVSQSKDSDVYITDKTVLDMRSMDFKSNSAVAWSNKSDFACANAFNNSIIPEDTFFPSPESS
Sequence (chain, as listed by the source, chain 2 of 2): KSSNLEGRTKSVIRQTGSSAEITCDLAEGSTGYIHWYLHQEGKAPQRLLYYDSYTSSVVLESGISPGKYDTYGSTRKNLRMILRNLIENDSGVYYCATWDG

| 100 nM L1 | Binder |
| --- | --- |
| 10400 | B1 |
| 65300 | B2 |
| 163000 | B3 |
| 5900 | B4 |
| 137000 | B5 |
| 18400 | B6 |
| 17100 | B7 |
| 23800 | B8 |
| 1980 | B9 |
